{
  "source": "paper PMC5339848",
  "key": {"[1]": {"biological_target": "AP2M1 (mu subunit of the AP2 complex) (UniProt Q96CW1)", "assay": "competitive binding with synthetic peptides, in vitro", "conditions": "reference: unphosphorylated peptide; sites Y8"}, "[2]": {"biological_target": "AP1M1 (mu subunit of the AP1 complex) (UniProt Q9BXS5)", "assay": "competitive binding with synthetic peptides, in vitro", "conditions": "reference: unphosphorylated peptide; sites Y8"}},
  "data": [
    {"substance": "mATG9 1-18 (from UniProt Q7Z3C6) pY8 peptide", "values": [
      {"measurement": "binding against the reference", "setting": "[1]", "result": "stronger"},
      {"measurement": "binding against the reference", "setting": "[2]", "result": "stronger"}
    ]}
  ]
}
